Where two headings read alike, the source gives them in different places. Values belong to the molecule of their own block, whether it stands above or below them. Starred links: 1 amine or outer side, 2 acyl side, 3 side chain; linkers in the order of their positions; H or OH if unused. Positions of bridges follow the written chain, without caps; N, C: chain ends. Non-standard residues stand in square brackets, D forms with d. Groups on a side chain read outwards from the residue. No end group written: not given here. *: point of attachment. PEG12 = NCCOCCOCCOCCOCCOCCOCCOCCOCCOCCOCCOCCOCCC(=O)O; C18 diacid = O=C(O)CCCCCCCCCCCCCCCCC(=O)*; Dip = N[C@H](C(=O)O)C(c1ccccc1)c1ccccc1; γGlu = O=C(O)[C@H](CCC(=O)[*:2])N[*:1]; Palmitoyl = CCCCCCCCCCCCCCCC(=O)*; β3hF = N[C@H](CC(=O)O)Cc1ccccc1; Isovaleryl = CC(C)CC(=O)*; Dap = NC[C@H](N)C(=O)O; AEEA = NCCOCCOCC(=O)O; Npc = nipecotic acid; Ahx = NCCCCCC(=O)O
Tests used:
[1] = target: human ferroportin (SLC40A1) fused in frame with GFP, stably expressed in HEK293 cells (human) (UniProt Q9NP59); assay: cell-based or functional assay
[2] = target: T1, ferroportin (endogenously expressed in T47D cells) (Homo sapiens, UniProt Q9NP59); assay: T47D cell-based ferroportin internalization assay in presence of 0.5% mouse serum albumin (AF647-conjugated detection peptide, flow cytometry); settings: read-out: IC50: T47D Internalization MSA
T1 construct: is a human breast carcinoma adherent cell line which endogenously expresses ferroportin; host or cells: T47D
T1 sequence (Q9NP59 1-571): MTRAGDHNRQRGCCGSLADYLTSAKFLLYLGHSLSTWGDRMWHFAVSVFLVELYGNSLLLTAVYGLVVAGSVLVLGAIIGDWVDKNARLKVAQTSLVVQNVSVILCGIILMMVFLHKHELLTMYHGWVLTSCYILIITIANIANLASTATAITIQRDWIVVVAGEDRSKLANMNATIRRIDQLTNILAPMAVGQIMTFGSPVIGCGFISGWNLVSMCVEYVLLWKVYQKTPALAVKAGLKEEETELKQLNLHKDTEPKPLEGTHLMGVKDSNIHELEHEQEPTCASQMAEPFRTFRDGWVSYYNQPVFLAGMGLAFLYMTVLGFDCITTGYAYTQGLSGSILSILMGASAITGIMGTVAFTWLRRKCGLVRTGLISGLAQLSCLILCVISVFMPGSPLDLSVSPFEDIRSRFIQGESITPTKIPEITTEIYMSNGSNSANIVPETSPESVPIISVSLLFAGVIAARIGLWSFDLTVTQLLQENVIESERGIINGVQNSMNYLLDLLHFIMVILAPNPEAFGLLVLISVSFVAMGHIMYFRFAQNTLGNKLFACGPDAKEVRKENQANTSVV
Description: The potency of the peptides in causing ferroportin internalization was evaluated in a T47D cell-based assay. […] In this internalization assay, the potency of the test peptides was evaluated in the presence of serum albumin, which is the main protein component in the blood. T47D cells were maintained in RPMI media (containing required amount of fetal bovine serum) and regularly sub-cultured. […] The test peptide dilution series were allowed to incubate at room temperature for 30 min. Then the media was aspirated from the 96-well cell plate and test peptide dilution series were added. After 1 hr incubation, the media with test peptides was aspirated out and AF647-conjugated detection peptide was added at fixed concentration of 200 nM. […] The cells were washed again after a 2 hr incubation in preparation for flow cytometry analysis. The Median Fluorescence Intensity (MFI) of the AF647-positive population was measured (after removing dead cells and non-singlets from the analysis). The MFI values were used to generate a dose-response curve and obtain IC50 potencies for the test peptides.

human ferroportin = target: T2, human ferroportin (Homo sapiens, UniProt Q9NP59); assay: FPN activity assay: internalization/degradation of ferroportin-GFP in stably transfected HEK293 cells (decrease in GFP fluorescence); assay type: cell-based; settings: Table 2B; HEK293 cells expressing human ferroportin-GFP, at least 18 hours incubation; read-out: FPN EC50
T2 construct: expressed in transfected cells
T2 sequence (Q9NP59 1-571): T1 sequence (Q9NP59 1-571)
Description: Following internalization, the ferroportin protein is degraded.
A retro inverse peptide is a peptide with a reversed sequence in all D amino acids. An example is that Hy-Glu-Thr-His-NH2 becomes Hy-DHis-DThr-DGlu-NH2. The EC50 of these reference compounds for ferroportin internalization/degradation was determined according to the FPN activity assay described above. These peptides served as control standards.
These values were determined as described herein.

LAD2 cells = assay type: cell-based, human
Summary of the method: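 Compound serial dilutions were added to LAD2 human mast cells for 30 min. β-Hexosaminidase in supernatants and cell lysates was quantified with the fluorogenic substrate 4-methylumbelliferyl-N-acetyl-b-D-glucosaminide. Dose-response curves plotted % β-hexosaminidase release against peptide concentration.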

[3] = target: T3, ferroportin endogenously expressed on T47D human breast carcinoma cells (human, UniProt Q9NP59 1-571); assay: cell-based or functional assay
T3 sequence (looked up): T1 sequence (Q9NP59 1-571)

[4] = target: T4, human ferroportin (SLC40A1) fused in frame with GFP, stably expressed in HEK293 cells (human, UniProt Q9NP59 1-571); assay: cell-based or functional assay
T4 sequence (looked up): T1 sequence (Q9NP59 1-571)

[5] = target: T4, human ferroportin (SLC40A1) fused in …; assay: cell-based or functional assay; remark: listed apart in the source
[6] = target: T4, human ferroportin (SLC40A1) fused in …; assay: cell-based or functional assay; remark: listed apart in the source

Molecule: CC[C@H](C)[C@@H]1NC(=O)[C@@H](NC(=O)[C@@H]2CCCN2C(=O)[C@@H](NC(=O)[C@H](Cc2cnc[nH]2)NC(=O)[C@@H](NC(=O)[C@H](CCC(=O)O)NC(=O)CC(C)C)[C@@H](C)O)C(c2ccccc2)c2ccccc2)CSSC[C@@H](C(N)=O)NC(=O)[C@@H](CCCCN)NC(=O)C[C@H](Cc2ccccc2)NC(=O)[C@H](CCCCNC(=O)COCCOCCNC(=O)COCCOCCNC(=O)[C@H](CN)NC(=O)CCCCCCCCCCCCCCCCC(=O)O)NC1=O [Compound 278, Isovaleric Acid-E-T-H-[Dpa]-P—C—I-[Lys(1PEG2_1PEG2_Dap_C18_Diacid)]-[bhPhe]-[(D)Lys]-C—NH2]
- IC50 [2]: 14.2 nM
- DC50 (human ferroportin): 4.3 nM
- EC50 (LAD2 cells): 15500 nM

B2: Compound 202 (peptide)
peptide: XETXXPCIXXXC
modifications: Isovaleric Acid-E-T-[His_1Me]-[Dpa]-P-C-I-[Lys(PEG12_Palm)]-[bhPhe]-[(D)Lys]-C-NH2
- FPN EC50 [4]: 25.6 nM

B3: Compound 256 (peptide)
peptide: XETHXPCIXXXC
modifications: not fully specified; Isovaleric Acid-E-T-H-[Dpa]-P-C-I-[Lys(1PEG2_1PEG2_Ahx_C18_Diacid)]-[bhPhe]-[(D)Lys(PEG7_OMe)]-C-NH2
- IC50: T47D Internalization MSA [3]: 68.9 nM

B4: Compound 19 (peptide)
peptide: XETHXPCIXXXXC
modifications: Isovaleric Acid-E-T-H-[Dpa]-P-[Cys]-I-[(D)Lys(2Peg11′_OMe)]-[bhPhe]-[Lys(Ahx_Palm)]-[(D)Lys(2Peg11′_OMe)]-[Cys]-NH2
- IC50: T47D Internalization MSA [3]: 2.56 nM

B5: Compound 272 (peptide)
peptide: XETHXXCIXXXC
modifications: Isovaleric Acid-E-T-H-[Dpa]-[Npc]-C-I-[Lys(1PEG2_1PEG2_IsoGlu_C18_Diacid)]-[bhPhe]-[(D)Lys]-C-NH2
- IC50: T47D Internalization MSA [3]: 137 nM

B7: Compound 279 (peptide)
peptide: XXTHXPCIXXXC
modifications: Isovaleric Acid-[Glu_OMe]-T-H-[Dpa]-P-C-I-[Lys(1PEG2_1PEG2_Dap_C18_Diacid)]-[bhPhe]-[(D)Lys]-C-NH2
- IC50: T47D Internalization MSA [3]: 15.4 nM

B9: Compound 99 (peptide)
peptide: XETHXPCIXXXC
modifications: [C18_diacid_Ahx_PEG2_PEG2]-E-T-H-[Dpa]-P-[Cys]-I-[(D)Lys]-[bhPhe]-[(D)Lys]-[Cys]-NH2
- FPN EC50 [5]: > 3000 nM

B11: Compound 98 (peptide)
peptide: XETHXPCIXXXC
modifications: not fully specified; [Diacid_C18_isoGlu_PEG2_PEG2]-E-T-H-[Dpa]-P-[Cys]-I-[(D)Lys]-[bhPhe]-[(D)Lys]-[Cys]-NH2
- FPN EC50 [5]: > 3000 nM

B13: Compound 215 (peptide)
peptide: Isovaleryl-ETHFPCIK([AEEA-AEEA-γGlu-C18 diacid])FEPRSK(Ac)GCE
modifications: disulfide 6-16 (inferred)
- FPN EC50 [4]: > 3000 nM

B16: Compound 214 (peptide)
peptide: Isovaleryl-ETHFPCIK([AEEA-AEEA-γGlu-C18 diacid])FEPRSK(Ac)GCT
modifications: disulfide 6-16 (inferred)
- FPN EC50 [4]: > 3000 nM

B18: Compound 53 (peptide)
peptide: XETHXPCIXXXC
modifications: Isovaleric Acid-E-T-H-[(4F)Phe]-P-[Cys]-I-[Lys(2Peg11′_Palm)]-[bhPhe]-[(D)Lys]-[Cys]-NH2
- IC50: T47D Internalization MSA [3]: 1.3 nM

B19: Compound 222 (peptide)
peptide: Isovaleryl-ETHFPCIK([γGlu-C18 diacid])FEPRSKGCK-NH2
modifications: not fully specified (bridges); cysteine pairing not given here
- IC50: T47D Internalization MSA [3]: > 1000 nM

B21: Compound 5 (peptide)
peptide: Isovaleryl-ETH[Dip][Npc]CI[dK][β3hF]K([Ahx-Palmitoyl])[dK]C-NH2
modifications: disulfide 6-12 (inferred)
- FPN EC50 [5]: 2.88 nM

B22: Compound 202 (peptide)
peptide: XETXXPCIXXXC
modifications: Isovaleric Acid-E-T-[His_1Me]-[Dpa]-P-C-I-[Lys(PEG12_Palm)]-[bhPhe]-[(D)Lys]-C-NH2
- IC50: T47D Internalization MSA [3]: 4.3 nM

B23: Compound 6 (peptide)
peptide: XETHXPCIXXXXC
modifications: Isovaleric Acid-E-T-H-[Dpa]-P-[Cys]-I-[(D)Lys]-[bhPhe]-[Lys(Ahx_Palm)]-[(D)Lys]-[Cys]-NH2
- IC50: T47D Internalization MSA [3]: 1.95 nM

B25: Compound 278 (peptide)
peptide: XETHXPCIXXXC
modifications: Isovaleric Acid-E-T-H-[Dpa]-P-C-I-[Lys(1PEG2_1PEG2_Dap_C18_Diacid)]-[bhPhe]-[(D)Lys]-C-NH2
- FPN EC50 [4]: 4.3 nM

More lines, now with the values ahead:

- Potency EC50 [1]: 34 nM
Molecule: Hepcidin (peptide)

- Potency EC50 [1]: 712 nM
Molecule: Mini-Hepcidin 1-9 (peptide)

- IC50 [2]: 15.4 nM
- EC50 (LAD2 cells): 8000 nM
Molecule: CC[C@H](C)[C@@H]1NC(=O)[C@@H](NC(=O)[C@@H]2CCCN2C(=O)[C@@H](NC(=O)[C@H](Cc2cnc[nH]2)NC(=O)[C@@H](NC(=O)[C@H](CCC(=O)OC)NC(=O)CC(C)C)[C@@H](C)O)C(c2ccccc2)c2ccccc2)CSSC[C@@H](C(N)=O)NC(=O)[C@@H](CCCCN)NC(=O)C[C@H](Cc2ccccc2)NC(=O)[C@H](CCCCNC(=O)COCCOCCNC(=O)COCCOCCNC(=O)[C@H](CN)NC(=O)CCCCCCCCCCCCCCCCC(=O)O)NC1=O [Compound 279, Isovaleric Acid-[Glu_OMe]-T-H-[Dpa]-P—C—I-[Lys(1PEG2_1PEG2_Dap_C18_Diacid)]-[bhPhe]-[(D)Lys]-C—NH2]

- Potency EC50 (nM) [1]: > 10000 nM
Molecule: RI-Mini Hepcidin (peptide)

- IC50: T47D Internalization MSA [3]: 7.19 nM
B1: Compound 294 (peptide)
peptide: Isovaleryl-ETH[Dip]PCIK([PEG12-Palmitoyl])[β3hF]K(PEG30K)RC-NH2
modifications: disulfide 6-12 (inferred)

- IC50: T47D Internalization MSA [3]: 109 nM
B6: Compound 296 (peptide)
peptide: Isovaleryl-ETH[Dip]PCIK(PEG40KB)[β3hF]K([PEG12-Palmitoyl])RC-NH2
modifications: disulfide 6-12 (inferred)

- FPN EC50 [4]: 1780 nM
B8: Compound 295 (peptide)
peptide: Isovaleryl-ETH[Dip]PCIK([PEG12-Palmitoyl])[β3hF]K(PEG40KB)RC-NH2
modifications: disulfide 6-12 (inferred)

- FPN IC50 (nM), grade: *=>500 nM [6]: > 500 nM
B10: Compound 603 (peptide)
peptide: Isovaleryl-ET[Dap][Dip]PCI[dK][β3hF]K([PEG12-Palmitoyl])RC-NH2
modifications: disulfide 6-12 (inferred)

- FPN EC50 [4]: 11.4 nM
B12: Compound 279 (peptide)
peptide: XXTHXPCIXXXC
modifications: Isovaleric Acid-[Glu_OMe]-T-H-[Dpa]-P-C-I-[Lys(1PEG2_1PEG2_Dap_C18_Diacid)]-[bhPhe]-[(D)Lys]-C-NH2

- FPN EC50 [4]: 357 nM
B14: Compound 314 (peptide)
peptide: XETHXPCIXXXC
modifications: Isovaleric Acid-E-T-H-[Dpa]-P-C-I-[Lys(1PEG2_1PEG2_Ahx_Palm)]-[bhPhe]-[(D)Lys(PEG20K-C-NH2)

- FPN IC50 (nM), grade: *=>500 nM [6]: > 500 nM
B15: Compound 611 (peptide)
peptide: XEXHXPCIXXXXC
modifications: not fully specified; [Isovaleric Acid]-E-S-H-[Dpa]-P-C-I-[(D)Lys]-[aMePhe]-[Lys(PEG12_Palm)]-[(D)Lys]-C-NH2

- IC50: T47D Internalization MSA [3]: 9.22 nM
B17: Compound 295 (peptide)
peptide: Isovaleryl-ETH[Dip]PCIK([PEG12-Palmitoyl])[β3hF]K(PEG40KB)RC-NH2
modifications: disulfide 6-12 (inferred)

- FPN EC50 [4]: 1080 nM
B20: Compound 296 (peptide)
peptide: Isovaleryl-ETH[Dip]PCIK(PEG40KB)[β3hF]K([PEG12-Palmitoyl])RC-NH2
modifications: disulfide 6-12 (inferred)

- FPN EC50 [4]: 32.6 nM
B24: Compound 312 (peptide)
peptide: XETHXPCIXXXC
modifications: Isovaleric Acid-E-T-H-[Dpa]-P-C-I-[Lys(Ahx_Palm)]-[bhPhe]-[(D)Lys(PEG20K)]-C-NH2

- FPN EC50 [4]: 1360 nM
B26: Compound 297 (peptide)
peptide: XETHXPCIXXXC
modifications: Isovaleric Acid-E-T-H-[Dpa]-P-C-I-[Lys(1PEG2_1PEG2_Ahx_C18_Diacid)]-[bhPhe]-[(D)Lys(PEG40KB-C-NH2)
